T1: Mouse TLL1 (mouse, UniProt Q62381 148-1013, limits assumed)
T1 sequence (looked up): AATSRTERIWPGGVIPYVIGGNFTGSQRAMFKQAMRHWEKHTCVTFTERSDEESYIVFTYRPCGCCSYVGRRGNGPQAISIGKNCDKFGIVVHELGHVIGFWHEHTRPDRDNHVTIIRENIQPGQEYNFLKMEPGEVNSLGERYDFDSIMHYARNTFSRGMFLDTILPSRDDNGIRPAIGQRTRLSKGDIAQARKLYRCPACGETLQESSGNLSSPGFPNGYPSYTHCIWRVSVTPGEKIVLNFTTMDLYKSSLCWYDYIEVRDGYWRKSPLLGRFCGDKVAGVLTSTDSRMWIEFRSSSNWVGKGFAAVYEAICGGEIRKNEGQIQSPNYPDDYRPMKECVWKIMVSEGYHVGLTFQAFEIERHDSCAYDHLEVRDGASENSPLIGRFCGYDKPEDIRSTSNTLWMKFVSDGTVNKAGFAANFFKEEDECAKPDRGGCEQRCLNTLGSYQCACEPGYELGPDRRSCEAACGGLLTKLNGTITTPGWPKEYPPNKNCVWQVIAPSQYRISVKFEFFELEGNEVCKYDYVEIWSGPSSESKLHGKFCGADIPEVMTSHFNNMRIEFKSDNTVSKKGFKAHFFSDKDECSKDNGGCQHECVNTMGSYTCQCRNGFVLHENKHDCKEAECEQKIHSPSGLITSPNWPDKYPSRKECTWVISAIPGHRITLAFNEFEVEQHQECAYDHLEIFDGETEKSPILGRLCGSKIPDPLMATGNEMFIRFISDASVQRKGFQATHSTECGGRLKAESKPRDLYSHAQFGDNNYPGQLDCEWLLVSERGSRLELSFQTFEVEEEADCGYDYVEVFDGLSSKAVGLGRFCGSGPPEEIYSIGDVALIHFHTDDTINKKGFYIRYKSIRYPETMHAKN

T2: Human BMP1-1 (human, UniProt P13497-2 121-730, limits assumed)
T2 sequence (looked up): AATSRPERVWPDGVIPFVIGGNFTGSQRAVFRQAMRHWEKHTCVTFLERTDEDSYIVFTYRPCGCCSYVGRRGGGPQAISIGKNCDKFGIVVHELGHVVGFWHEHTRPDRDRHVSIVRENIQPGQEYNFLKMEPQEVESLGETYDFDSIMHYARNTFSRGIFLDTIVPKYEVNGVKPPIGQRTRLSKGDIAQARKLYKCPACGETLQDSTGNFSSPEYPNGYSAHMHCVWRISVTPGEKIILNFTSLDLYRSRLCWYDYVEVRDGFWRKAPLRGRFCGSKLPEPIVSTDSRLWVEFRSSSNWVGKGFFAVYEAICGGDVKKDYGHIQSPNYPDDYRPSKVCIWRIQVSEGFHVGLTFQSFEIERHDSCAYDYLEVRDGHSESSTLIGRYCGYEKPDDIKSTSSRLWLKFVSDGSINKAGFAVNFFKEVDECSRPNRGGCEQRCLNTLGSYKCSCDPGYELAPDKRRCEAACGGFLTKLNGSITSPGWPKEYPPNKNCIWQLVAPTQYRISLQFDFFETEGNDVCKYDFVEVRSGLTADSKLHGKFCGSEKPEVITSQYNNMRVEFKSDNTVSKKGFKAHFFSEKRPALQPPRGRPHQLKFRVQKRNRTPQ

T3: Human TLL1 (human, UniProt O43897 148-1013, limits assumed)
T3 sequence (looked up): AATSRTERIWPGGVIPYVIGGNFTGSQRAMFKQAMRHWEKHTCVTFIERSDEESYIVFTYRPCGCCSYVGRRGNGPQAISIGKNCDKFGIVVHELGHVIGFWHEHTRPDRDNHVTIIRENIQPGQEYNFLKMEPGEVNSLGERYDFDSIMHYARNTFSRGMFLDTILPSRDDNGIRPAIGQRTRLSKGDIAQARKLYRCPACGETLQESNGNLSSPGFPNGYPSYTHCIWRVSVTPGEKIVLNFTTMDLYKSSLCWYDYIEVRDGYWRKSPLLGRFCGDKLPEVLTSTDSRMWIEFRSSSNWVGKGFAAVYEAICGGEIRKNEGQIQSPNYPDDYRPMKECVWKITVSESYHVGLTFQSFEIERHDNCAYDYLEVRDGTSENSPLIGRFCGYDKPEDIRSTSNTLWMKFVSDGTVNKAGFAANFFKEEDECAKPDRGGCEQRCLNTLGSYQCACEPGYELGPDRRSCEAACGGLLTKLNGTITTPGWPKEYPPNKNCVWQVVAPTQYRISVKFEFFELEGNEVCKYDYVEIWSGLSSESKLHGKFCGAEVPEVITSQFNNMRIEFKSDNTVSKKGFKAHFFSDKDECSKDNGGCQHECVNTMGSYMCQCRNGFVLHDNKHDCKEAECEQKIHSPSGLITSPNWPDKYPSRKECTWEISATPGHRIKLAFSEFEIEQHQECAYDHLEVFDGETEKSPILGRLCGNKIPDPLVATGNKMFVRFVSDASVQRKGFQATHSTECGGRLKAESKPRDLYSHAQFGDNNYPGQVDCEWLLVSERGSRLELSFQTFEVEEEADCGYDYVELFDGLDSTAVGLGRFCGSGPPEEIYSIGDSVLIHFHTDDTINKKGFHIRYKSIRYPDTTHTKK


Columns and labels:
Experiment in all cases: cell-based or functional assay
Mouse TLL1 = target: T1, Mouse TLL1
Human BMP1-1 = target: T2, Human BMP1-1
Human TLL1 = target: T3, Human TLL1

Binder	IC50, FRET enzyme activity, 800 pM biotinylated mTLL-1 (Mouse TLL1)	IC50, FRET enzyme activity, 62.5 pM huBMP1 (Human BMP1-1)	IC50, FRET enzyme activity, 250 pM biotinylated huTLL-1 (Human TLL1)
13Y039-4B06-4324 (antibody, human IgG1, kappa, V domains shown, Fully human IgG1 LAGA, kappa; HEK expressed) VH: QVQLVQSGAEVKKPGASVKVSCKASGYTFRGYYMSWVRQAPGQGLEWMGWINPMSGETNYAQKFQGRVTMTRDTSISTAYMELSRLRSDDTAVYYCARDTGELDGMNWYFDLWGRGTLVTVSS VL: EIVLTQSPATLSLSPGERATLSCRASQSVSSYLAWYQQKPGQAPRLLIYDASNRATGIPARFSGSGSGTDFTLTISSLEPEDFAVYYCQQSDSWPPTFGGGTKVEIKR	0.1 nM	20 pM	30 pM
13Y039-4B06-4327 (antibody, human IgG1, kappa, V domains shown, Fully human IgG1 LAGA, kappa; HEK expressed) VH: QVQLVQSGAEVKKPGASVKVSCKASGYTFPGYYMTWVRQAPGQGLEWMGNINPNSGWTNYAQKFQGRVTMTRDTSISTAYMELSRLRSDDTAVYYCARDTGELDGMNWYFDLWGRGTLVTVSS VL: EIVLTQSPATLSLSPGERATLSCRASQSVSSYLAWYQQKPGQAPRLLIYDASNRATGIPARFSGSGSGTDFTLTISSLEPEDFAVYYCQQSDSWPPTFGGGTKVEIKR	40 pM	10 pM	10 pM
13Y039-4B06-4351 (antibody, human IgG1, kappa, V domains shown, Fully human IgG1 LAGA, kappa; HEK expressed) VH: QVQLVQSGAEVKKPGASVKVSCKASGYTFSGYYMSWVRQAPGQGLEWMGWINPNSGETFYAQKFQGRVTMTRDTSISTAYMELSRLRSDDTAVYYCARDTGELDGMNWYFDLWGRGTLVTVSS VL: EIVLTQSPATLSLSPGERATLSCRASQSVSSYLAWYQQKPGQAPRLLIYDASNRATGIPARFSGSGSGTDFTLTISSLEPEDFAVYYCQQSDSWPPTFGGGTKVEIKR	0.14 nM	30 pM	50 pM
13Y039-4B06-4325 (antibody, human IgG1, kappa, V domains shown, Fully human IgG1 LAGA, kappa; HEK expressed) VH: QVQLVQSGAEVKKPGASVKVSCKASGYTFWGYYMSWVRQAPGQGLEWMGWINPQSGETNYAQKFQGRVTMTRDTSISTAYMELSRLRSDDTAVYYCARDTGELDGMNWYFDLWGRGTLVTVSS VL: EIVLTQSPATLSLSPGERATLSCRASQSVSSYLAWYQQKPGQAPRLLIYDASNRATGIPARFSGSGSGTDFTLTISSLEPEDFAVYYCQQSDSWPPTFGGGTKVEIKR	70 pM	30 pM	20 pM
13Y039-4B06-4348 (antibody, human IgG1, kappa, V domains shown, Fully human IgG1 LAGA, kappa; HEK expressed) VH: QVQLVQSGAEVKKPGASVKVSCKASGYTFGGYYMSWVRQAPGQGLEWMGWINPNSGETYYAQKFQGRVTMTRDTSISTAYMELSRLRSDDTAVYYCARDTGELDGMNWYFDLWGRGTLVTVSS VL: EIVLTQSPATLSLSPGERATLSCRASQSVSSYLAWYQQKPGQAPRLLIYDASNRATGIPARFSGSGSGTDFTLTISSLEPEDFAVYYCQQSDSWPPTFGGGTKVEIKR	0.12 nM	20 pM	40 pM
13Y039-4B06-4364 (antibody, human IgG1, kappa, V domains shown, Fully human IgG1 LAGA, kappa; HEK expressed) VH: QVQLVQSGAEVKKPGASVKVSCKASGYTFRGYYMSWVRQAPGQGLEWMGWINPNSGETIYAQKFQGRVTMTRDTSISTAYMELSRLRSDDTAVYYCARDTGELDGMNWYFDLWGRGTLVTVSS VL: EIVLTQSPATLSLSPGERATLSCRASQSVSSYLAWYQQKPGQAPRLLIYDASNRATGIPARFSGSGSGTDFTLTISSLEPEDFAVYYCQQSDSWPPTFGGGTKVEIKR	0.13 nM	20 pM	60 pM
13Y039-4B06-4328 (antibody, human IgG1, kappa, V domains shown, Fully human IgG1 LAGA, kappa; HEK expressed) VH: QVQLVQSGAEVKKPGASVKVSCKASGYTFHGYYMNWVRQAPGQGLEWMGWINPLSGETNYAQKFQGRVTMTRDTSISTAYMELSRLRSDDTAVYYCARDTGELDGMNWYFDLWGRGTLVTVSS VL: EIVLTQSPATLSLSPGERATLSCRASQSVSSYLAWYQQKPGQAPRLLIYDASNRATGIPARFSGSGSGTDFTLTISSLEPEDFAVYYCQQSDSWPPTFGGGTKVEIKR	70 pM	30 pM	40 pM
13Y039-127G03-2890 (antibody, human IgG1, kappa, V domains shown, Fully human IgG1 LAGA, kappa; HEK expressed) VH: QVQLVQSGAEVKKPGSSVKVSCKASGGTFSSYAISWVRQAPGQGLEWMGGIIPVFGSAYYAQKFQGRVTITADESTSTAYMELSSLRSEDTAVYYCAGEGRAYYGSESYDDSDYMDVWGKGTTVTVSS VL: DIQMTQSPSSLSASVGDRVTITCQASQDISNYLNWYQQKPGKAPKLLIYDASNLETGVPSRFSGSGSGTDFTFTISSLQPEDIATYYCQQADIFPLTFGGGTKVEIKR	0.88 nM	0.4 nM	18.2 nM
13Y039-152B02-2940 (antibody, human IgG1, kappa, V domains shown, Fully human IgG1 LAGA, kappa; HEK expressed) VH: QVQLVQSGAEVKKPGSSVKVSCKASGGTFSSDAISWVRQAPGQGLEWMGGIITNFGTATYAQKFQGRVTITADESTSTAYMELSSLRSEDTAVYYCARDVGVQLVYHGAFDIWGQGTMVTVSS VL: DIQMTQSPSSLSASVGDRVTITCQASQDISNYLNWYQQKPGKAPKLLIYDASNLATGVPSRFSGSGSGTDFTFTISSLQPEDIATYYCQQDDYLPITFGGGTKVEIKR	0.1 nM	0.13 nM	50 pM
13Y039-152B02-2948 (antibody, human IgG1, kappa, V domains shown, Fully human IgG1 LAGA, kappa; HEK expressed) VH: QVQLVQSGAEVKKPGSSVKVSCKASGGTFSDFAISWVRQAPGQGLEWMGGIIPIYGTASYAQKFLGRVTITADESTSTAYMELSSLRSEDTAVYYCARDVGVQLVYHGAFDIWGQGTMVTVSS VL: DIQMTQSPSSLSASVGDRVTITCQASQDISNYLNWYQQKPGKAPKLLIYDASNLATGVPSRFSGSGSGTDFTFTISSLQPEDIATYYCQQDDYLPITFGGGTKVEIKR	0.11 nM	0.31 nM	80 pM
13Y039-152B02-2935 (antibody, human IgG1, kappa, V domains shown, Fully human IgG1 LAGA, kappa; HEK expressed) VH: QVQLVQSGAEVKKPGSSVKVSCKASGGTFSESAISWVRQAPGQGLEWMGGIIPTFDTTNYAQKFQGRVTITADESTSTAYMELSSLRSEDTAVYYCARDVGVQLVYHGAFDIWGQGTMVTVSS VL: DIQMTQSPSSLSASVGDRVTITCQASQDISNYLNWYQQKPGKAPKLLIYDASNLATGVPSRFSGSGSGTDFTFTISSLQPEDIATYYCQQDDYLPITFGGGTKVEIKR	70 pM	0.25 nM	90 pM

— patent US20230279089A1 (GlaxoSmithKline, published 2023)
